Test results published in patent US10081667B2, “Composition and method for therapeutic agent delivery during pregnancy” (University of Mississippi Medical Center, priority 2013, dated 2018).
Read-outs that look alike come from different tables or passages of the source. Where no end group is shown, it is not given here.

What was measured:
[1] = Pharmacokinetics and biodistribution of SynB1-ELP-p50 versus free p50 peptide in pregnant rats
[2] = rat, in vivo
[3] = Biodistribution of fluorescently labeled ELP / SynB1-ELP in pregnant rats after IV bolus (ex vivo imaging, frozen sections); design: species or system Sprague Dawley rats
Experimental: FIG. 2 includes a series of images and a graph showing the biodistribution of ELP in pregnant rats. FIG. 2A. The ELP drug carrier was labeled with AlexalFluor633 and infused into normal pregnant Sprague Dawley rats by IV injection (100 mg/kg). 4 h after injection, ex vivo images of placentas, pups, and major organs were collected using an IVIS Spectrum. FIG. 2B. Fluorescence intensity was quantified in all tissues. Error bars represent the standard deviation of 3 rats.
FIG. 3 includes a series of images and a graph illustrating placental distribution of ELP and SynB1-ELP. FIG. 3A. After IV administration of fluorescently-labeled polypeptides or saline control, placentas, pups, and major organs were removed and imaged ex vivo using an IVIS Spectrum. Polypeptide deposition in placentas and pups is shown. FIG. 3B. Fluorescence levels in placentas, pups, and major organs was quantified using Living Image software. Error bars represent the standard deviation of four rats per treatment group. FIG. 3C. Frozen sections of intact placentas and pups were cut, stained with the actin-specific rhodamine-phalloidin to allow visualization of the placenta and pups, and scanned using a florescence slide scanner. FIG. 3D. The same slides were imaged using a florescence microscope to visualize the cellular localization of the polypeptides in the placenta (100× magnification).
Pregnant Sprague Dawley rats on day 14 of gestation were injected with fluorescently labeled ELP (100 mg/kg IV). […] Placentas and pups were dissected from the amniotic sacks and imaged ex vivo using an IVIS Spectrum animal imager to detect and quantitate the ELP levels. […] In contrast, almost no ELP was detectable in the pups. The image intensities of the placentas, pups, and major organs were quantitated using Living Image software, and the results are shown in FIG. 2B. […] These high ELP levels in the placenta are unprecedented with this molecule. By way of comparison, the placenta levels are 2 to 10 fold higher than the tumors levels (Bidwell G L, et al., PloS One, 2013; Bidwell G L, 3rd, Cancer Lett., 2012).
This example also examined whether the addition of a CPP to ELP would affect its penetration across the placenta. SynB1-ELP was labeled with Alexa633 and injected as described above. For comparison, animals were injected with saline control or ELP-Alexa633 at an equivalent dose. Four hours after injection, placental, fetal, and organ levels were determined by ex vivo fluorescence imaging. […] In addition to the ex vivo fluorescence imaging, the fetal-amnio-placental complex was removed, rapidly frozen, and sectioned using a cryomicrotome. Tissue sections were stained with the actin-specific rhodamine-phalloidin to allow visualization of all tissue and imaged directly using a fluorescence slide scanner. […] The intraplacental distribution SynB1-ELP-Alexa633 differed slightly from ELP-Alexa633. […] Both polypeptides could be detected within the cells of the placenta when examined microscopically (FIG. 3D).

[4] = rat, in vivo; remark: listed apart in the source
trophoblast cells = settings: rat, in vivo
[5] = Plasma levels and biodistribution after chronic infusion by IP minipump GD14-GD19; assay type: in vivo, rats
Experimental: FIG. 7 includes images and graphs showing plasma levels and biodistribution of FLPs after Chronic Infusion. FIG. 7A. Rhodamine-labeled ELP or SynB1-ELP was administered chronically by IP minipump from GD14-GD19. Plasma was sampled throughout the experiment, and polypeptide levels were determined relative to standards of the injected protein. Data represent the mean±s.d. of four rats per group. FIG. 7B. Ex vivo fluorescence imaging of eight pups and corresponding placentas from one rat from each group is shown. FIG. 7C. Fluorescence intensities were quantified, corrected for autofluorescence, and fit to standards of the injected proteins. Data represent the mean±s.e. of eight placentas and eight pups per rat and four rats per group. *Statistically significant as determined by a two-way ANOVA with post-hoc Bonferroni multiple comparisons (p<0.05). **Levels were not detectable over autofluorescence.
Whether the fetal exclusion held after five days of continuous infusion of the polypeptides is also examined. ELP or SynB1-ELP was administered continuously from GD14 to GD19 using an IP minipump. […] At the dose used (30 mg/kg/day), the plasma levels were maintained at 33.94 μg/mL for ELP and 69.15 μg/mL for SynB1-ELP. These plasma levels are a reflection of many in vivo kinetic processes, including the rate of transport from the peritoneal fluid to the blood, the rate of extravasation from the blood to the tissues, and the plasma clearance rate. […] These plasma concentration data also provide useful information for the formulation of dosages when ELP is fused with therapeutic agents.
Ex vivo whole organ fluorescence analysis of the placentas is performed, pups, and organs on GD19 following five days of continuous polypeptide infusion. Relative to the acute experiment, the placental levels of the polypeptides were lower, which resulted from the difference in dose (100 mg/kg in the bolus dosing versus 30 mg/kg/day in the chronic infusion). […] The kidneys still accumulated the most polypeptide, followed by the liver and the placenta (FIG. 7C). […]

[6] = ELP-VEGF pharmacokinetics and biodistribution in mice after bolus IV; assay type: in vivo, C57/B16 mice
Experimental: FIG. 12 includes graphs showing ELP-VEGF pharmacokinetics and biodistribution. FIG. 12A. Fluorescently labeled free VEGF or ELP-VEGF were administered by IV injection to C57/B16 mice. Plasma levels were determined by direct fluorescence quantitation and fit to a two-compartment pharmacokinetic model. FIG. 12B. […] FIG. 12D.
In addition to examining the ELP-VEGF activity in vitro, the pharmacokinetics (PK) and biodistribution of ELP-VEGF in comparison to free VEGF121 is also determined. Both free VEGF121 and ELP-VEGF were fluorescently labeled, and their PK and biodistribution were determined in mice after bolus intravenous administration. […] This is consistent with other reports of approximately a 30 minute half-life for recombinant VEGF in humans. ELP-VEGF cleared more slowly than free VEGF121 (FIG. 12A). […] Four hours after the infusion, the biodistribution was determined by ex vivo whole organ fluorescence imaging.

[7] = tested on: human umbilical vein endothelial cells (HUVECs); assay: HUVEC proliferation, MTS cell proliferation assay; assay type: cell-based; settings: 72 h exposure
Experimental: FIG. 9 is a bar graph showing ELP-VEGF stimulation of HUVEC proliferation. HUVEC cell proliferation was determined after 72 h exposure to ELP, VEGF, or ELP-VEGF at the indicated concentrations using the MTS cell proliferation assay.
Proliferation of human umbilical vein endothelial cells (HUVECs) is stimulated when the cell are exposed to VEGF.

Molecule: VQRKRQKLMP [p50 peptide]
- initial plasma levels relative to SynB1-ELP-p50 levels ([1]; 100 mg/kg single bolus, pregnant rats): about 100 fold lower
- entry into fetal circulation / pups ([1]; four hours after injection): freely entered the fetal circulation and was visible in the pups
- total placental levels relative to SynB1-ELP-p50 ([1]; four hours after injection): thirty fold lower

B1: ELP: elastin-like polypeptide drug carrier, repeats of VPGXG; unmodified carrier, fluorescently labeled for the tests (protein)
chain: VGVPGAGVPGGGVPGAGVPGGGVPGAGVPGGGVPGAGVPGGGVPGAGVPGGGVPGAGVPGGGVPGAGVPGGGVPGAGVPGVGVPGAGVPGGGVPGAGVPGGGVPGAGVPGGGVPGAGVPGGGVPGAGVPGGGVPGAGVPGGGVPGAGVPGGGVPGAGVPGVGVPGAGVPGGGVPGAGVPGGGVPGAGVPGGGVPGAGVPGGGVPGAGVPGGGVPGAGVPGGGVPGAGVPGGGVPGAGVPGVGVPGAGVPGGGVPGAGVPGGGVPGAGVPGGGVPGAGVPGGGVPGAGVPGGGVPGAGVPGGGVPGAGVPGGGVPGAGVPGVGVPGAGVPGGGVPGAGVPGGGVPGAGVPGGGVPGAGVPGGGVPGAGVPGGGVPGAGVPGGGVPGAGVPGGGVPGAGVPGVGVPGAGVPGGGVPGAGVPGGGVPGAGVPGGGVPGAGVPGGGVPGAGVPGGGVPGAGVPGGGVPGAGVPGGGVPGAGVPGVGVPGAGVPGGGVPGAGVPGGGVPGAGVPGGGVPGAGVPGGGVPGAGVPGGGVPGAGVPGGGVPGAGVPGGGVPGAGVPGVGVPGAGVPGGGVPGAGVPGGGVPGAGVPGGGVPGAGVPGGGVPGAGVPGGGVPGAGVPGGGVPGAGVPGGGVPGAGVPGGGVPGAGVPGGGVPGAGVPGGGVPGAGVPGGGVPGAGVPGGGVPGAGVPGGGVPGAGVPGGGVPGAGVPGGGVPGAGVPGVGVPGAGVPGGGVPGAGVPGGGVPGAGVPGGGVPGAGVPGGGVPGAGVPGGGVPGAGVPGGGVPGAGVPGGGVPGAGVPG
modifications: Alexa633 label; synthetic ELP
notes: elastin-like polypeptide drug carrier, repeats of VPGXG; unmodified carrier, fluorescently labeled for the tests
- level in pups [2]: Neither peptide was detectable in the pups
- placental accumulation relative to other organs ([3]; 4 h after 100 mg/kg IV): nearly equivalent to levels in the liver
- level in pups, ex vivo fluorescence imaging ([3]; 4 h after 100 mg/kg IV, GD14): barely detectable over autofluorescence in the pups
- placental accumulation, ex vivo fluorescence imaging ([3]; 4 h after 100 mg/kg IV, GD14): accumulated strongly in the placenta
- placental accumulation, frozen sections, fluorescence slide scanner ([3]; 4 h after IV injection): accumulated at high levels in the placenta relative to autofluorescence controls
- polypeptide in pups, frozen sections, fluorescence slide scanner ([3]; 4 h after IV injection): no polypeptide was detectable in the pups
- intraplacental distribution ([3]; frozen sections): accumulated at high levels throughout the placenta
- half-life ([3]; pregnant rats GD14, 100 mg/kg IV): Four hours after injection, which is about one half-life
- total signal in degraded bands <50 kDa [4]: less than 20%
- accumulation in trophoblast cells (trophoblast cells): accumulated in the cytoplasm of trophoblast cells
- polypeptide in interior of chorionic villi (fetal blood) (trophoblast cells): contained no ELP or SynB1-ELP
- steady state plasma level ([5]; 30 mg/kg/day IP minipump GD14-GD19): 33.94 µg/mL
- placental accumulation ([5]; GD19, five days continuous infusion): accumulated at high levels in the placenta
- level in pups ([5]; GD19, five days continuous infusion, 30 mg/kg/day): undetectable over autofluorescence in the pups

B2: VEGF121: free recombinant vascular endothelial growth factor VEGF121, comparator (protein)
chain: MSKGPGVGVPGAGVPGGGVPGAGVPGGGVPGAGVPGGGVPGAGVPGGGVPGAGVPGGGVPGAGVPGGGVPGAGVPGGGVPGAGVPGVGVPGAGVPGGGVPGAGVPGGGVPGAGVPGGGVPGAGVPGGGVPGAGVPGGGVPGAGVPGGGVPGAGVPGGGVPGAGVPGVGVPGAGVPGGGVPGAGVPGGGVPGAGVPGGGVPGAGVPGGGVPGAGVPGGGVPGAGVPGGGVPGAGVPGGGVPGAGVPGVGVPGAGVPGGGVPGAGVPGGGVPGAGVPGGGVPGAGVPGGGVPGAGVPGGGVPGAGVPGGGVPGAGVPGGGVPGAGVPGVGVPGAGVPGGGVPGAGVPGGGVPGAGVPGGGVPGAGVPGGGVPGAGVPGGGVPGAGVPGGGVPGAGVPGGGVPGAGVPGVGVPGAGVPGGGVPGAGVPGGGVPGAGVPGGGVPGAGVPGGGVPGAGVPGGGVPGAGVPGGGVPGAGVPGGGVPGAGVPGVGVPGAGVPGGGVPGAGVPGGGVPGAGVPGGGVPGAGVPGGGVPGAGVPGGGVPGAGVPGGGVPGAGVPGGGVPGAGVPGVGVPGAGVPGGGVPGAGVPGGGVPGAGVPGGGVPGAGVPGGGVPGAGVPGGGVPGAGVPGGGVPGAGVPGGGVPGAGVPGVGVPGAGVPGGGVPGAGVPGGGVPGAGVPGGGVPGAGVPGGGVPGAGVPGGGVPGAGVPGGGVPGAGVPGGGVPGAGVPGVGVPGAGVPGGGVPGAGVPGGGVPGAGVPGGGVPGAGVPGGGVPGAGVPGGGVPGAGVPGGGVPGAGVPGGGVPGAGVPGWPGSGAPMAEGGGQNHHEVVKFMDVYQRSYCHPIETLVDIFQEYPDEIEYIFKPSCVPLMRCGGCCNDEGLECVPTEESNITMQIMRIKPHQGQHIGEMSFLQHNKCECRPKKDRARQEKCDKPRR
modifications: synthetic ELP-VEGF sequences
notes: free recombinant vascular endothelial growth factor VEGF121, comparator
- terminal plasma half-life ([6]; bolus IV, 2-compartment PK model): approximately 30 minutes
- organ accumulation, ex vivo whole organ fluorescence imaging ([6]; four hours after the infusion): accumulated most highly in the kidneys and the liver
- stimulation of HUVEC proliferation [7]: stimulated HUVEC proliferation with equal potency
